Test results as given in paper doi:10.1101/2023.03.17.533092 (bioRxiv, 2023).

Key:
[1] = target: SARS-CoV-2 spike glycoprotein (S) (SARS-CoV-2 (Wuhan), UniProt P0DTC2)
[2] = target: SARS-CoV-2 Wuhan S RBD, biotinylated (SARS-CoV-2 (Wuhan), UniProt P0DTC2, biotin (biotinylated; site not stated))

Binder	binding result [1]	binding result [2]
ADAH15 (VHH) VHH: QVQLQESGGGLVQAGGSLRLSCAASGTTYLAANMGWFRQAPGKEREFVAAITFFHNPTVYYADSVKGRFTISRDNAKNTVYLQMNSLKPEDTAVYYCAATVLVRDRIHFSHSIGIRYWGQGTQVTVSS	binds	binds
ADAH14 (VHH) VHH: QVQLQESGGGLVQAGGSLRLSCAASGSYFFHALMGWFRQAPVKEREFVASITAVPGATYYRRCTDSVKGRFTISRDNAKNTVYLQMNSLKPEDTAVYYCALATHSNRHTPITYWGQGTQVTVSS	binds	binds
